Laboratory results reported in patent US8980614B2, “Staphylococcus haemolyticus prophage φSH2 endolysin is lytic for Staphylococcus aureus” (The United States of America, as represented by The …, priority 2012, dated 2015).

What was measured:
[1] = system: staphylococcal strains (MRSA strains, mastitis isolates, coagulase negative staphylococci); assay: Plate lysis assay, whole set of strains; format: cell-based, Staphylococcus; conditions: 100 to 3.125 pmoles spotted
Protocol: (§1) Purified proteins (100 pmoles in a 10 μl volume and five two-fold serial dilutions thereof) were spotted onto a freshly spread lawn of log phase staphylococcal cells (OD600 nm of 0.4-0.6, diluted ¼ before plating) that had air dried for 15 min on gridded TSA (tryptic soy agar) plates. The spotted plates were air dried for 10 min in a laminar flow hood and incubated overnight at 37° C. Cleared spots indicating cell lysis were scored within 24 hours of plating the cells.
(§2) The φSH2 full length enzyme and the A1 construct were further tested in plate lysis assays against a set of different staphylococcal strains, including MRSA strains (NRS 382-385), mastitis isolates (305, Tanji 1-26), and coagulase negative staphylococci (non S. aureus) (Table 2). The same molar amounts of both proteins (ranging from 100 pmoles to 3.125 pmoles, in a volume of 10 ul) were spotted onto lawns of mid log phase cells of the respective strains, and the plates were analyzed for lysis zones the next day.

S. chromogenes = assay: Plate lysis assay; format: cell-based; conditions: 100 pmoles and 2-fold serial dilutions spotted on bacterial lawns
Protocol: as §1, §2

S. aureus NRS 382 = assay: Plate lysis assay; format: cell-based; conditions: S. aureus NRS 382 (MRSA); 100 pmoles and 2-fold serial dilutions spotted on bacterial lawns
Protocol: as §1, §2

S. aureus 305 = assay: Plate lysis assay; format: cell-based; conditions: 100 pmoles and 2-fold serial dilutions spotted on bacterial lawns
Protocol: as §1, §2

S. aureus NRS 383 = assay: Plate lysis assay; format: cell-based; conditions: S. aureus NRS 383 (MRSA); 100 pmoles and 2-fold serial dilutions spotted on bacterial lawns
Protocol: as §1, §2

S. aureus Tanji 19 = assay: Plate lysis assay; format: cell-based; conditions: 100 pmoles and 2-fold serial dilutions spotted on bacterial lawns
Protocol: as §1, §2

S. simulans = assay: Plate lysis assay; format: cell-based
Protocol: as §1, §2

S. epidermidis = assay: Plate lysis assay; format: cell-based; conditions: 100 pmoles and 2-fold serial dilutions spotted on bacterial lawns
Protocol: as §1, §2

S. aureus NRS 384 = assay: Plate lysis assay; format: cell-based; conditions: S. aureus NRS 384 (MRSA); 100 pmoles and 2-fold serial dilutions spotted on bacterial lawns
Protocol: as §1, §2

S. aureus NRS 385 = assay: Plate lysis assay; format: cell-based; conditions: S. aureus NRS 385 (MRSA); 100 pmoles and 2-fold serial dilutions spotted on bacterial lawns
Protocol: as §1, §2

S. hyicus = assay: Plate lysis assay; format: cell-based
Protocol: as §1, §2

S. xylocus = assay: Plate lysis assay; format: cell-based; conditions: 100 pmoles and 2-fold serial dilutions spotted on bacterial lawns
Protocol: as §1, §2

S. aureus Newman = assay: Plate lysis assay; format: cell-based
Protocol: as §1, §2

S. aureus Tanji 1 = assay: Plate lysis assay; format: cell-based; conditions: 100 pmoles and 2-fold serial dilutions spotted on bacterial lawns
Protocol: as §1, §2

S. warneri = assay: Plate lysis assay; format: cell-based; conditions: 100 pmoles and 2-fold serial dilutions spotted on bacterial lawns
Protocol: as §1, §2

S. aureus Tanji 26 = assay: Plate lysis assay; format: cell-based; conditions: 100 pmoles and 2-fold serial dilutions spotted on bacterial lawns
Protocol: as §1, §2

S. aureus Tanji 20 = assay: Plate lysis assay; format: cell-based; conditions: 100 pmoles and 2-fold serial dilutions spotted on bacterial lawns
Protocol: as §1, §2

S. aureus Newman cells [2] = assay: Zymogram with S. aureus Newman cells embedded in the gel; format: cell-based; conditions: 5 μg protein
Protocol: All purified proteins were analyzed with 15% SDS-PAGE, using a Kaleidoscope Precision Plus Protein Standard (BioRad, Hercules, Calif.). For zymograms, a 300 mL culture volume equivalent of live mid-log phase (OD600nm=0.4-0.6) cells of S. aureus strain Newman was embedded in the gel during polymerization. The protein samples were boiled in Laemmli sample buffer (BioRad) with β-mercaptoethanol, and electrophoresed with identical buffers and voltage for one hour in both the SDS-PAGE and the zymogram using a Mini-Protean TETRA gel system (BioRad). SDS gels were Coomassie stained and zymograms were washed in excess water and further incubated in deionized water for 60 min, followed by incubation in 10 mM Tris, pH 8.0 with 150 mM or 300 mM NaCl for 80 min. Areas of clearing in the turbid zymogram gel indicate a lytic protein in the gel.

S. aureus Newman cells [3] = assay: Turbidity reduction assay; format: cell-based, Staphylococcus aureus
Protocol: The turbidity reduction assay measures a decrease in optical density of a bacterial suspension due to lysis of the target bacteria by a lytic protein. The assays were performed in a 96-well dish format essentially as described previously (Donovan et al. 2006, supra). In order to reduce the variability of the assay, frozen stocks of S. aureus Newman substrate cells were prepared in a large batch as described by Becker et al. (2009b, supra). Immediately prior to the assay, the frozen cells were thawed, washed, and resuspended in the desired assay buffer such that when 100 μl of cell suspension were added to 100 μl of lysis buffer+/−protein, the final suspension has an OD600nm of ˜1.0.
Protein constructs were assayed at a concentration of 1 μM, and the assay was performed at room temperature, measuring the OD600nm at 1 min intervals for 45 min. Buffer without enzyme served as the control. The steepest slopes of the resulting lysis curves, which correspond to the lytic activities of the proteins, were determined by a sliding window over each group of three consecutive time points for the entire 45 min period. Specific activities were expressed as ΔOD600nm/min/μM, and the “no enzyme” control value was subtracted from each experimental value.
In order to determine the effect of salt concentration on lytic activity, turbidity reduction assays were performed in 10 mM Tris buffers at pH 7.5 with varying NaCl concentrations between 0 mM and 600 mM. Accordingly, the influence of pH was determined by using a series of different buffers with pH values ranging from 3.5 to 10.0. Citrate buffers were used for pH 3.5, 4.5, 5.5, and 6.0, MOPS buffers for pH 6.5, 7.0, and 7.5, Tris buffers for pH 8.0 and 9.0, and Carbonate/bicarbonate buffer for pH 10.0. The concentration of the buffer substance in all buffers used was 20 mM, and the NaCl concentration was 200 mM. To test the effect of bivalent metal ions, assays were performed in 10 mM Tris, 200 mM NaCl, pH 7.5 supplemented with MgCl2, MnCl2, or CaCl2 at different concentrations (0.1 mM, 1 mM, 10 mM), buffer without metal ions serving as control.

[4] = 100 pmoles and 2-fold serial dilutions spotted on bacterial lawns

B1: ΦSH2 A1: Truncation of φSH2 lysin (1-166), isolated CHAP domain, 6×His-tagged, from pφSH2_A1, SEQ ID NO:4 (protein)
chain: MKTQAEINKRLDAYRKGTVDSPYRVKVWTSYDNRFYPMEPGCIDVDKSFHAQCADLTIDYILWLTDNEFRIRGNAKDAINPKKNKLPEGWKIVLNRPSTVPRKGWIAVFTDGTYWEYGHIGMVYDGGNTSRFQILEQNWNGWANKKPSLRWDNYYGLTHFIVPPVALEHHHHHH
modifications: 6xHis tag; Bacteriophage Phi SH2
[1]; 16 strains tested
  strains against which lytic activity was displayed: 13 out of 16
[1]; four MRSA strains (NRS 382-385)
  MRSA strains lysed: two MRSA strains
S. chromogenes
  Lytic activity (lowest amount of protein producing a lysis zone): ++ (++: 50 pmoles)
S. aureus NRS 382
  Lytic activity (lowest amount of protein producing a lysis zone): ++ (++: 50 pmoles)
S. aureus 305
  Lytic activity (lowest amount of protein producing a lysis zone): ++++ (++++: 12.5 pmoles)
S. aureus NRS 383
  Lytic activity (lowest amount of protein producing a lysis zone): − (‘−’ means that no lysis was observed at the highest amount tested (100 pmoles))
S. aureus Tanji 19
  Lytic activity (lowest amount of protein producing a lysis zone): +++ (+++: 25 pmoles)
S. simulans; [4]
  Lytic activity (lowest amount of protein producing a lysis zone): +++ (+++: 25 pmoles)
S. simulans; 100 to 3.125 pmoles spotted
  amount of protein causing a lysis zone: 25 pmol
S. epidermidis
  Lytic activity (lowest amount of protein producing a lysis zone): − (‘−’ means that no lysis was observed at the highest amount tested (100 pmoles))
S. aureus NRS 384
  Lytic activity (lowest amount of protein producing a lysis zone): ++ (++: 50 pmoles)
S. aureus NRS 385
  Lytic activity (lowest amount of protein producing a lysis zone): − (‘−’ means that no lysis was observed at the highest amount tested (100 pmoles))
S. hyicus; [4]
  Lytic activity (lowest amount of protein producing a lysis zone): ++++ (++++: 12.5 pmoles)
S. hyicus; 100 to 3.125 pmoles spotted
  amount of protein causing a lysis zone: 12.5 pmol
S. xylocus
  Lytic activity (lowest amount of protein producing a lysis zone): ++ (++: 50 pmoles)
S. aureus Newman; [4]
  Lytic activity (lowest amount of protein producing a lysis zone): + (+: 100 pmoles)
S. aureus Newman; 100 to 3.125 pmoles spotted
  amount of protein causing a lysis zone: 100 pmol
S. aureus Tanji 1
  Lytic activity (lowest amount of protein producing a lysis zone): +++ (+++: 25 pmoles)
S. warneri
  Lytic activity (lowest amount of protein producing a lysis zone): ++ (++: 50 pmoles)
S. aureus Tanji 26
  Lytic activity (lowest amount of protein producing a lysis zone): + (+: 100 pmoles)
S. aureus Tanji 20
  Lytic activity (lowest amount of protein producing a lysis zone): +++ (+++: 25 pmoles)
S. aureus Newman cells [2]; after incubation in deionized water for 60 min
  lysis in zymogram: did not cause a lytic band
S. aureus Newman cells [2]; water 60 min, then 10 mM Tris, 150 mM NaCl, pH 8.0 up to 80 min
  lysis in zymogram: intense lytic band
S. aureus Newman cells [3]; 1 μM protein, at optimum salt concentration
  lytic (specific) activity compared with the full length φSH2 lysin: approximately three-fold higher
S. aureus Newman cells [3]; 1 mM CaCl2, relative to 0 mM, 10 mM Tris, 200 mM NaCl, pH 7.5
  increase of lytic activity by Ca2+: more than 6 fold
S. aureus Newman cells [3]; 0.1-10 mM MgCl2, 10 mM Tris, 200 mM NaCl, pH 7.5
  effect of Mg2+ on lytic activity: not significantly alter
S. aureus Newman cells [3]; 0.1-10 mM MnCl2, 10 mM Tris, 200 mM NaCl, pH 7.5
  effect of Mn2+ on lytic activity: slightly inhibitory effect
